Paper doi:10.1101/324103 (bioRxiv, 2018)

Molecular target: the molecule itself
Experiment: SEC-MALS + AUC

B1: ammonium transporter AmtB from Escherichia coli (natural protein)
chain: APAVADKADNAFMMICTALVLFMTIPGIALFYGGLIRGKNVLSMLTQVTVTFALVCILWVVYGYSLAFGEGNNFFGNINWLMLKNIELTAVMGSIYQYIHVAFQGSFACITVGLIVGALAERIRFSAVLIFVVVWLTLSYIPIAHMVWGGGLLASHGALDFAGGTVVHINAAIAGLVGAYLIGKRVGFGKEAFKPHNLPMVFTGTAILYIGWFGFNAGSAGTANEIAALAFVNTVVATAAAILGWIFGEWALRGKPSLLGACSGAIAGLVGVTPACGYIGVGGALIIGVVAGLAGLWGVTMLKRLLRVDDPCDVFGVHGVCGIVGCIMTGIFAASSLGGVGFAEGVTMGHQLLVQLESIAITIVWSGVVAFIGYKLADLTVGLRV
  stoichiometry N: 3
